Columns and labels:
[1] = molecular target: T1, hCen2, purified (GST removed) (human, UniProt P41208 1-172); test: pull-down
T1 sequence: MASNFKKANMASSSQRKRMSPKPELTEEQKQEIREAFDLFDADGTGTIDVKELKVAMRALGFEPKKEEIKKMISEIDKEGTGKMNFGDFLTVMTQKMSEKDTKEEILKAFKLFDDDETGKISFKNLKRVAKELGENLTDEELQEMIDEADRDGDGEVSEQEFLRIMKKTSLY

[2] = molecular target: T2, hCen3, purified (GST removed) (human, UniProt O15182 1-167); test: pull-down
T2 sequence: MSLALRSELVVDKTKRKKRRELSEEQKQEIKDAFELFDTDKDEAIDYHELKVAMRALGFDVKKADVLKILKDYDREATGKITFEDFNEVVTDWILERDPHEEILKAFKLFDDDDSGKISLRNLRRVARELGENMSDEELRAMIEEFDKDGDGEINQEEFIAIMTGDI

- binding result [1]: binds
- binding result [2]: binds
B1: GST-hPOC5 CBR2+3 (aa 222-304) (domain or fragment)
chain: EISIGRKDEVISSLSHAIGKQKEKIELMRTFFHWRIGHVRARQDVYEGKLADQYYQRTLLKKVWKVWRSVVQKQWKDVVERAC

From PMC2700515 (The Journal of Cell Biology, 2009)
